Data on one substance can be found in publication PMC3732869.

In the experiment the target is PTH receptors on UMR 106 cells (rat (endogenous in UMR 106)) (UniProt P25961).
UniProt P25961, sequence (P25961 27-591): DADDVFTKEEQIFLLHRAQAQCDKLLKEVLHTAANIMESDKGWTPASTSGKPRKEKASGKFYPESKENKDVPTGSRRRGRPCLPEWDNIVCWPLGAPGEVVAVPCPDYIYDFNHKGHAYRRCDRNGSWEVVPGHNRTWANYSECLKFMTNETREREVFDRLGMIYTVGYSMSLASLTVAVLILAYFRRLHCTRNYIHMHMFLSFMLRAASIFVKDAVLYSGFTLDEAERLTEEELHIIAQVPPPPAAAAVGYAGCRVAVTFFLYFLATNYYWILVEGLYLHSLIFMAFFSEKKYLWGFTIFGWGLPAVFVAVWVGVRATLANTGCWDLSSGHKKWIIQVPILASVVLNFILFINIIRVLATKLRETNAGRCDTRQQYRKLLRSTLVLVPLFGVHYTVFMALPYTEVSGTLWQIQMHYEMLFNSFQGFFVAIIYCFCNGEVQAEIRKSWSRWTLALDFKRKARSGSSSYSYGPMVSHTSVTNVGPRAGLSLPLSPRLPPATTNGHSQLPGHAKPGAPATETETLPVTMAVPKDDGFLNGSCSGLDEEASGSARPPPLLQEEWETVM

Regarding “recombinant human parathyroid hormone (rhPTH 1-34) (peptide)”, the potency in the cAMP bioassay on UMR 106 cells, against the standard is 99.7%.
